Values of other authors in PMC10217895.
Read-outs that look alike come from different tables or passages of the source.

Key:
[1] = biological target: von Willebrand factor (Homo sapiens) (UniProt P04275)
ASGPR (Homo sapiens) = ASGPR (Homo sapiens) (UniProt P07306)
LRP1 (Homo sapiens) = LRP1 (Homo sapiens) (UniProt Q07954)
[2] = biological target: von Willebrand factor (Homo sapiens) (UniProt P04275); remark: listed apart in the source
LDLR (Homo sapiens) = LDLR (Homo sapiens) (UniProt P01130)
SIGLEC5 (Homo sapiens) = SIGLEC5 (Homo sapiens) (UniProt O15389)
SCARA5 (Homo sapiens) = SCARA5 (Homo sapiens) (UniProt Q6ZMJ2)
SCARA5 (Homo sapiens), sequence (Q6ZMJ2 whole entry): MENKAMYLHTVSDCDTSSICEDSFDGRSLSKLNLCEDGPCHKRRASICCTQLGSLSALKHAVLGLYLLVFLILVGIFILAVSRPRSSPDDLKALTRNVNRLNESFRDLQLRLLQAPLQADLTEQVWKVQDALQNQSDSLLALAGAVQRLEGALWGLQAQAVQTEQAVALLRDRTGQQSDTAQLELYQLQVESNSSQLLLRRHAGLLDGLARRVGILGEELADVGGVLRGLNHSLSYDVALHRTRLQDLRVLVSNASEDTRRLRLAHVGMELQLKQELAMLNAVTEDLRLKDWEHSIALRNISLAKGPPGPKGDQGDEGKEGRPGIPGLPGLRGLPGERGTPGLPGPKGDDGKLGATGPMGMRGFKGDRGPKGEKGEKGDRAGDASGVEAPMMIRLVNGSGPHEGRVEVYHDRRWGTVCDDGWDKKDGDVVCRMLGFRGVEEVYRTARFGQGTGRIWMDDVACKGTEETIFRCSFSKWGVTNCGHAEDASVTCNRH

Factor VIII, sequence (P00451 760-1332): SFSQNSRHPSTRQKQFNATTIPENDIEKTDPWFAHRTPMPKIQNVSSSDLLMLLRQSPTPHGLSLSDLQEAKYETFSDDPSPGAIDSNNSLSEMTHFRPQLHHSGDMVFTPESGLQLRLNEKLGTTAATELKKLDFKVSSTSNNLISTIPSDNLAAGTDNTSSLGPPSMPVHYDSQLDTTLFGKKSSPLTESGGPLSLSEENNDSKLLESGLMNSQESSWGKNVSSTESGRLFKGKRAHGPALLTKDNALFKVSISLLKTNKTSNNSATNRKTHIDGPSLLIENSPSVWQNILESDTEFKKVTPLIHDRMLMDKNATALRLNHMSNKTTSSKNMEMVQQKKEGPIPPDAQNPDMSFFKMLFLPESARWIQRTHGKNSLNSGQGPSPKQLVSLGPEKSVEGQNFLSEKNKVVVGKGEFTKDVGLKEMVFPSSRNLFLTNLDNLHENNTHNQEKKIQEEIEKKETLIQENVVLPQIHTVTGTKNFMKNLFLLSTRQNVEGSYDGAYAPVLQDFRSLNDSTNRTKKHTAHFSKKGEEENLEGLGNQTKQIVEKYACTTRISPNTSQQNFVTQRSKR
FVIII-KB013bv, sequence (P00451 20-759): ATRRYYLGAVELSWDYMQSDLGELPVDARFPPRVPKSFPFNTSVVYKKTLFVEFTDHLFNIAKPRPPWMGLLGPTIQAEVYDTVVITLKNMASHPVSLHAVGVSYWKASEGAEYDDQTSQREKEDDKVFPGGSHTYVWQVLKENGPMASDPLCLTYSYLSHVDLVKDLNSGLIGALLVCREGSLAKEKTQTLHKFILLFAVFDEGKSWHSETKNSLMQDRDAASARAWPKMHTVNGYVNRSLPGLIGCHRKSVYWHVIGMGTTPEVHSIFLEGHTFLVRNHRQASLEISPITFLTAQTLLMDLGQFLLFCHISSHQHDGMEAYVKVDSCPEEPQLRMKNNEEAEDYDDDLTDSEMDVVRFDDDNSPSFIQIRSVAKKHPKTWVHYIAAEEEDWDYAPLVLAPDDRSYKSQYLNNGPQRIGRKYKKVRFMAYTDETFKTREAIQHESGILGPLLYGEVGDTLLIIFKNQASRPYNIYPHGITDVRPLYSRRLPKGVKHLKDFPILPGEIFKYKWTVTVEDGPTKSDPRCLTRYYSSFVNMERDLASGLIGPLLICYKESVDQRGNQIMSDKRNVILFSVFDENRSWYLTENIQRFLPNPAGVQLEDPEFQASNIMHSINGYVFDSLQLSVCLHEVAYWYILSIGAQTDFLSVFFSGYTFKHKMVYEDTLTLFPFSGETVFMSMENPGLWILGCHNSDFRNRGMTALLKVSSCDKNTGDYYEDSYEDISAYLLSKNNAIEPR
FVIII-KB013bv, sequence (P00451 1668-2351): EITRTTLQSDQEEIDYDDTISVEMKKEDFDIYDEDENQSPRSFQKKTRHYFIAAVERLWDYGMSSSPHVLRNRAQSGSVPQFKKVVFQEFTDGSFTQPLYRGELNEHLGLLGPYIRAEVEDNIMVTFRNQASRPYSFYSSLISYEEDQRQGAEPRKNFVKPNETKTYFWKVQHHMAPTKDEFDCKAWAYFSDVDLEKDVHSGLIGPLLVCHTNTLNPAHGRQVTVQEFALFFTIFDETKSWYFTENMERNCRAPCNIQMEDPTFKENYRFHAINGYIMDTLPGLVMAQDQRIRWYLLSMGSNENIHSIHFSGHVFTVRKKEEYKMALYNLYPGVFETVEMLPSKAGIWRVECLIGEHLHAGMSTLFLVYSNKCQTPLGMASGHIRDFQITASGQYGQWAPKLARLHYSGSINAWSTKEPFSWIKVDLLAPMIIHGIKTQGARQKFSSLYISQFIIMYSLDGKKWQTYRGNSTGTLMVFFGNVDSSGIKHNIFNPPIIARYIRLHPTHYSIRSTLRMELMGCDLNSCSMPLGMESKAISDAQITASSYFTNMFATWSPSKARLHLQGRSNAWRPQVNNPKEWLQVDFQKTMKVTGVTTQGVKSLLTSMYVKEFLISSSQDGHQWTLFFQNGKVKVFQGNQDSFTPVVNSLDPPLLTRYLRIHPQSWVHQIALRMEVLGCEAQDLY
ASGPR (Homo sapiens), sequence (P07306 whole entry, chain 1 of 2): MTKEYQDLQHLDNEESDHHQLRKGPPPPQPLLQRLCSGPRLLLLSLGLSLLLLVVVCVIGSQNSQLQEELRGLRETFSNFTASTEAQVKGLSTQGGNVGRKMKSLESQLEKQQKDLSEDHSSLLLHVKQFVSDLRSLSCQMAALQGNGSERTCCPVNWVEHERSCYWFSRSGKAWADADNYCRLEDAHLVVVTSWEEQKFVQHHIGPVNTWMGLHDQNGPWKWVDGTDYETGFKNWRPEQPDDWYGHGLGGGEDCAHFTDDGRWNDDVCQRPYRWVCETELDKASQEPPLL
ASGPR (Homo sapiens), sequence (P07307 whole entry, chain 2 of 2, further chain): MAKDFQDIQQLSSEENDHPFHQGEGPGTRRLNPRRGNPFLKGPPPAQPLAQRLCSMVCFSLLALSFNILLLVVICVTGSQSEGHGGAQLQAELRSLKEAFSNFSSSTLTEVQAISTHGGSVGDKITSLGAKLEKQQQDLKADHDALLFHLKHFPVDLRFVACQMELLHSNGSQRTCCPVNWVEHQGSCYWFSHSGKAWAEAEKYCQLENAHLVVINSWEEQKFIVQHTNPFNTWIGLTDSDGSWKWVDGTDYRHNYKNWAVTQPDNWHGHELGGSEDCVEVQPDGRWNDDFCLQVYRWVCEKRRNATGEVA
LDLR (Homo sapiens), sequence (P01130 22-788): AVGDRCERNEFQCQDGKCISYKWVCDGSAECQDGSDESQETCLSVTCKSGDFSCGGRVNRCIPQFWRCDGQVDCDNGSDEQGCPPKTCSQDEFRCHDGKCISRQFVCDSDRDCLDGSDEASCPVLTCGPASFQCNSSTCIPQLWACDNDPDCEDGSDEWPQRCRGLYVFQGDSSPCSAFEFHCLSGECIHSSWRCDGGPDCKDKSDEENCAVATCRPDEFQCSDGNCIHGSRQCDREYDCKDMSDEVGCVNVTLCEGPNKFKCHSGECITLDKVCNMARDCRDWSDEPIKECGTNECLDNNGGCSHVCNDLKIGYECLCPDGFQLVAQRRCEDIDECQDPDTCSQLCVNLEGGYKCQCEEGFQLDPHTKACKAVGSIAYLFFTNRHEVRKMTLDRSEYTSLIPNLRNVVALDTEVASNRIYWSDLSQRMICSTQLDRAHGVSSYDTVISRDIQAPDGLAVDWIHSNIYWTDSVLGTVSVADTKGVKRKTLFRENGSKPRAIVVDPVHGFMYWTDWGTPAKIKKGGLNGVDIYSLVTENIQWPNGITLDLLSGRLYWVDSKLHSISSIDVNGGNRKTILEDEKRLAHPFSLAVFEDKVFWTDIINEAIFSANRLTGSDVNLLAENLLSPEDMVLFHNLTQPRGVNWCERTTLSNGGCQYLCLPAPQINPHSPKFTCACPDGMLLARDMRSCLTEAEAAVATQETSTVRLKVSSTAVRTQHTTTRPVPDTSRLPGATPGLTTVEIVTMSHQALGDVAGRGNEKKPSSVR
SIGLEC5 (Homo sapiens), sequence (O15389 17-441): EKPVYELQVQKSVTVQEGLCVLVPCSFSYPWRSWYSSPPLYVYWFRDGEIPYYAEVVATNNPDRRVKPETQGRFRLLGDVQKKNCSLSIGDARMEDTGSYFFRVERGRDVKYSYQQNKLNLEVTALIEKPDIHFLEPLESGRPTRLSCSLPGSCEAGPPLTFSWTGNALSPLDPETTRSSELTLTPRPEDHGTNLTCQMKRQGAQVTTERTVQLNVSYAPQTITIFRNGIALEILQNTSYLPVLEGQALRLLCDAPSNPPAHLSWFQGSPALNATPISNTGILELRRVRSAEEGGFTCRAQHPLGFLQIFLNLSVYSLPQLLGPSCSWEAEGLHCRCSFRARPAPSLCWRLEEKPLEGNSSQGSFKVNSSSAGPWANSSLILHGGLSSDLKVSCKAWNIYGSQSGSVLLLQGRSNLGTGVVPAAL

Substance: FVIII-KB013bv (from UniProt P00451)
- Kd [1]: 0.013 nM

Substance: Factor VIII (from UniProt P00451)
- Kd (ASGPR (Homo sapiens)): 2 nM
- Kd (LRP1 (Homo sapiens)): 20 nM
- Kd [2]: 0.5 nM
- Kd (LDLR (Homo sapiens)): 45 nM
- Kd (SIGLEC5 (Homo sapiens)): 8 nM

Substance: von Willebrand factor (from UniProt P04275)
- Kd (SCARA5 (Homo sapiens)): 0.5 nM
